Source: publication PMC7367176, “Grønning Alexander Gulliver Bjørnholt Department of Biochemistry and Molecular Biology, University of Southern Denmark, 5230 Odense M, Denmark”

How the values were obtained:
[1] = molecular target: T1, hnRNP A1 (UniProt P09651 1-372); assay: SPR imaging; 1:2 biphasic fit, primary Kd; SPRi (IBIS MX-96): 10 mM HEPES/KOH pH 7.9, 150 mM KCl, 10 mM MgCl2, 0.075% Tween-80; 6.25-400 nM protein over immobilized biotinylated RNA; 20 mg/ml BSA block; conditions: protein: commercial; label: 3' biotin
[2] = molecular target: T2, SRSF1 (UniProt Q07955 1-248); assay: SPR imaging; SPRi (IBIS MX-96): 10 mM HEPES/KOH pH 7.9, 150 mM KCl, 10 mM MgCl2, 0.075% Tween-80; 6.25-400 nM protein over immobilized biotinylated RNA; 20 mg/ml BSA block; conditions: protein: recombinant; label: 3' biotin
[3] = molecular target: T1, hnRNP A1; assay: SPR imaging; 1:2 biphasic fit, primary Kd; low Rmax 58.75; SPRi (IBIS MX-96): 10 mM HEPES/KOH pH 7.9, 150 mM KCl, 10 mM MgCl2, 0.075% Tween-80; 6.25-400 nM protein over immobilized biotinylated RNA; 20 mg/ml BSA block; conditions: protein: commercial; label: 3' biotin
[4] = molecular target: T2, SRSF1; assay: SPR imaging; Kd NA, Rmax 0, maximum 0; SPRi (IBIS MX-96): 10 mM HEPES/KOH pH 7.9, 150 mM KCl, 10 mM MgCl2, 0.075% Tween-80; 6.25-400 nM protein over immobilized biotinylated RNA; 20 mg/ml BSA block; conditions: protein: recombinant; label: 3' biotin
[5] = molecular target: TDP-43 (UniProt Q13148 1-414); assay: SPR imaging; pronounced increase vs wt; SPRi (IBIS MX-96): 10 mM HEPES/KOH pH 7.9, 150 mM KCl, 10 mM MgCl2, 0.075% Tween-80; 6.25-400 nM protein over immobilized biotinylated RNA; 20 mg/ml BSA block; conditions: protein: commercial; label: 3' biotin
[6] = molecular target: T1, hnRNP A1; assay: SPR imaging; 1:2 biphasic fit, primary Kd; low Rmax 68.35; SPRi (IBIS MX-96): 10 mM HEPES/KOH pH 7.9, 150 mM KCl, 10 mM MgCl2, 0.075% Tween-80; 6.25-400 nM protein over immobilized biotinylated RNA; 20 mg/ml BSA block; conditions: protein: commercial; label: 3' biotin
[7] = molecular target: T1, hnRNP A1; assay: SPR imaging; 1:2 biphasic fit, primary Kd; fitted maximum higher than SMN1 (1260 vs 885); SPRi (IBIS MX-96): 10 mM HEPES/KOH pH 7.9, 150 mM KCl, 10 mM MgCl2, 0.075% Tween-80; 6.25-400 nM protein over immobilized biotinylated RNA; 20 mg/ml BSA block; conditions: protein: commercial; label: 3' biotin
[8] = molecular target: T1, hnRNP A1; assay: SPR imaging; 1:2 biphasic fit, primary Kd; text: increased binding vs WT (maximum 718 vs 131); SPRi (IBIS MX-96): 10 mM HEPES/KOH pH 7.9, 150 mM KCl, 10 mM MgCl2, 0.075% Tween-80; 6.25-400 nM protein over immobilized biotinylated RNA; 20 mg/ml BSA block; conditions: protein: commercial; label: 3' biotin
[9] = molecular target: T1, hnRNP A1; assay: SPR imaging; 1:2 biphasic fit, primary Kd; fitted maximum higher than WT (60.5 vs 49.6); SPRi (IBIS MX-96): 10 mM HEPES/KOH pH 7.9, 150 mM KCl, 10 mM MgCl2, 0.075% Tween-80; 6.25-400 nM protein over immobilized biotinylated RNA; 20 mg/ml BSA block; conditions: protein: commercial; label: 3' biotin

T1 sequence (P09651 whole entry): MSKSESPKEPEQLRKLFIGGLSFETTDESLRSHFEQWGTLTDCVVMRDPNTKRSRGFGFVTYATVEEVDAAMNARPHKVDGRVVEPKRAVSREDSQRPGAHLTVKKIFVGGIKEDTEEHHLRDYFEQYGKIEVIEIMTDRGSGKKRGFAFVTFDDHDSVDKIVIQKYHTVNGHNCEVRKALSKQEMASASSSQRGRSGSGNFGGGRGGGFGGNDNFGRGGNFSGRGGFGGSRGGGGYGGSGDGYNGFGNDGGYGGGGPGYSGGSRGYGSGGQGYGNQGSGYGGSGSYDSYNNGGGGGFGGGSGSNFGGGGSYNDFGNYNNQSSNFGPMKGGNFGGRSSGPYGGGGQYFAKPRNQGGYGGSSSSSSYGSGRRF
T2 sequence (Q07955 whole entry): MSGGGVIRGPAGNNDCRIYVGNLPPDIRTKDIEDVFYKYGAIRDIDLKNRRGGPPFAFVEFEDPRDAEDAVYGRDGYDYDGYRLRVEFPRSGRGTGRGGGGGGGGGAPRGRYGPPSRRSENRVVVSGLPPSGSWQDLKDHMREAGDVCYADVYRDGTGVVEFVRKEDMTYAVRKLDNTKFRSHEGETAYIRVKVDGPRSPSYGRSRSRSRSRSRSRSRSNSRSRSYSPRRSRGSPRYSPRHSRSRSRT
TDP-43, sequence (Q13148 whole entry): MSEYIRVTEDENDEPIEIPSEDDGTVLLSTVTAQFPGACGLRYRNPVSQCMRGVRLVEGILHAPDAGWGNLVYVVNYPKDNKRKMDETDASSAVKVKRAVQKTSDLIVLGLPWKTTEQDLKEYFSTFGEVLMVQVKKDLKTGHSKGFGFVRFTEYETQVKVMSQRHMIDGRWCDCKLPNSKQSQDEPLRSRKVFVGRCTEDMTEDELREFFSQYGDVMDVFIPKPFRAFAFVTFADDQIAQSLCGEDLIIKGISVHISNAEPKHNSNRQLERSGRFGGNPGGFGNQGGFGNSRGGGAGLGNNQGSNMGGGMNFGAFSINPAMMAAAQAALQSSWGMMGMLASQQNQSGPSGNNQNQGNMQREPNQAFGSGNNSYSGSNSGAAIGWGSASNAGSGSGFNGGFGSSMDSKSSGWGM

Binder: UCCCAGUCAGAGGCG (ssRNA) [PTENEX6 WT]
- Kd [1]: 1.16 µM
- Kd [2]: 5.8 µM

Binder: CAUUCUUCGACUAGC (ssRNA) [MLH1EX17 WT]
- Kd [3]: 0.032 µM
- binding result [4]: no binding

Binder: UGAUGUGUGUGAGUGUGUGUAAC (ssRNA) [ACADM exon 6 5'ss +7A>G 23 nt]
- binding result [5]: binds

Binder: UCCCAGUUAGAGGCG (ssRNA) [PTENEX6 MUT]
- Kd [1]: 1.45 µM
- Kd [2]: 161 µM

Binder: AGGGUUUCAGACAAA (ssRNA) [SMN1E7C]
- Kd [1]: 0.733 µM
- Kd [2]: 0.302 µM

Binder: CAUUCUUUGACUAGC (ssRNA) [MLH1EX17 MUT]
- binding result [4]: no binding
- Kd [6]: 0.118 µM

Binder: GGGAGAUGGAAUCAA (ssRNA) [ATP7AEX20 WT]
- Kd [1]: 0.886 µM
- Kd [2]: 0.913 µM

Binder: AGGGUUUUAGACAAA (ssRNA) [SMN2E7T]
- Kd [7]: 1.04 µM
- Kd [2]: 249 µM

Binder: GGGAGAUAGAAUCAA (ssRNA) [ATP7AEX20 MUT]
- Kd [2]: 5.09 µM
- Kd [8]: 0.989 µM

Binder: UGACCUCGAAACAGC (ssRNA) [ATMEX44 WT]
- Kd [1]: 3.89 µM
- Kd [2]: 60.9 µM

Binder: AUUUUUGUAAGAGUG (ssRNA) [NF1EX30 MUT]
- Kd [1]: 1.08 µM
- Kd [2]: 248 µM

Binder: UGACCUCAAAACAGC (ssRNA) [ATMEX44 MUT]
- Kd [9]: 211 µM
- Kd [2]: 10.5 µM

Binder: AUUUUUGGAAGAGUG (ssRNA) [NF1EX30 WT]
- Kd [1]: 0.632 µM
- Kd [2]: 0.168 µM
